Laboratory results published in publication PMC10141540.

Tests used:
HU-B [1] = biological target: T1, HU-B (Escherichia coli, UniProt P0ACF4 1-90); assay: EMSA
T1 sequence: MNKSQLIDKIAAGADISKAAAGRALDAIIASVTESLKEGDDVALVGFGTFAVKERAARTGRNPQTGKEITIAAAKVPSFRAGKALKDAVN

HU-A = HU-A (Escherichia coli, UniProt P0ACF0 1-90); assay: EMSA
HU-B [2] = biological target: T1, HU-B; assay: condensate co-localization

HU-A, sequence (P0ACF0 whole entry): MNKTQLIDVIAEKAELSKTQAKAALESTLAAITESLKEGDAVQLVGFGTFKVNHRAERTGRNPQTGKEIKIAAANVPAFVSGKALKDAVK

B1: 4WJ DNA (structured_DNA)
DNA 1: CCCTATAACCCCTGCATTGAATTCCAGTCTGATAA
DNA 2: GTAGTCGTGATAGGTGCAGGGGTTATAGGG
DNA 3: AACAGTAGCTCTTATTCGAGCTCGCGCCCTATCACGACTA
DNA 4: TTTATCAGACTGGAATTCAAGCGCGAGCTCGAATAAGAGCTACTGT
- binding result (HU-B [1]): binds
- binding result (HU-A): binds

B2: 20 bp dsDNA (dsDNA)
DNA 1: GTTCAATTGTTGTTAACTTG
DNA 2: CAAGTTAACAACAATTGAAC
- binding result (HU-B [2]): binds
